Measured values published in the supplement of paper PMC7125110.
± gives the standard error. For some of these results: Fewer inactive variants are shown than the library holds.

B1: glmS ribozyme (parent)
chain: AUAAAAGCGCCAGAACUACAGAAAUGUAGUUGACGAGGAGGAGGUUUAUCGAAUUUUCGGCGGAUGCCUCCAAA

Experiments:
Conditions in all cases: with glucosamine-6-phosphate
glucosamine-6-phosphate [1] = variants of: B1; assay: kcat; higher = faster cleavage; RNA array
Method in brief: (§1)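 Weighted Michaelis–Menten fits across concentrations supplied kcat and KM, based on kobs from one- or two-exponential decay fits to normalised per-tile medians. The data came from barcoded ribozyme variants transcribed in situ by E. coli RNA polymerase on sequenced MiSeq chips and tracked at 37 °C by a hybridised Cy3 probe. Glucosamine-6-phosphate (40 μM to 10 mM) in HEPES/KCl/Mg(OAc)2 buffer was flowed in.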

glucosamine-6-phosphate [2] = variants of: B1; assay: self-cleavage kobs at 2500 uM GlcN6P; higher = faster cleavage; RNA array
Method in brief: as §1

glucosamine-6-phosphate [3] = variants of: B1; assay: self-cleavage kobs at 10000 uM GlcN6P; higher = faster cleavage; RNA array
Method in brief: as §1

glucosamine-6-phosphate [4] = variants of: B1; assay: KM; higher = weaker cofactor use; RNA array
Method in brief: as §1

glucosamine-6-phosphate [5] = variants of: B1; assay: self-cleavage kobs at 640 uM GlcN6P; higher = faster cleavage; RNA array
Method in brief: as §1

glucosamine-6-phosphate [6] = variants of: B1; assay: self-cleavage kobs at 40 uM GlcN6P; higher = faster cleavage; RNA array
Method in brief: as §1

glucosamine-6-phosphate [7] = variants of: B1; assay: self-cleavage kobs at 160 uM GlcN6P; higher = faster cleavage; RNA array
Method in brief: as §1

Variant	kcat (glucosamine-6-phosphate [1]) [s⁻¹]	self-cleavage kobs at 2500 uM GlcN6P (glucosamine-6-phosphate [2]) [s⁻¹]	self-cleavage kobs at 10000 uM GlcN6P (glucosamine-6-phosphate [3]) [s⁻¹]	KM (glucosamine-6-phosphate [4]) [µM]	self-cleavage kobs at 640 uM GlcN6P (glucosamine-6-phosphate [5]) [s⁻¹]	self-cleavage kobs at 40 uM GlcN6P (glucosamine-6-phosphate [6]) [s⁻¹]	self-cleavage kobs at 160 uM GlcN6P (glucosamine-6-phosphate [7]) [s⁻¹]
G43U U55C	3.2e-05 ± 2.4e-06	3.2e-05 ± 1.2e-05	3.01e-05 ± 8.7e-06				
G44U U47A	0.00016 ± 1.2e-05	9.01e-05 ± 1.7e-05	0.000136 ± 1.6e-05	1850 ± 460	4.97e-05 ± 2.4e-05		
G44U U47G	1.56e-05 ± 2.1e-07			2560 ± 150			
G41U U47C	0.000156 ± 5.1e-05	0.000205 ± 4.6e-05	0.000128 ± 2.3e-05		4.55e-05 ± 1.3e-05		
G43U C67A	0.00389 ± 0.00036	0.00219 ± 0.00043	0.00371 ± 0.0005	1310 ± 180	0.00129 ± 0.00023	0.000122 ± 1.7e-05	0.000392 ± 8.9e-05
G43U C67U	5.98e-05 ± 3.8e-06	5.2e-05 ± 1.1e-05	5.46e-05 ± 7.3e-06	699 ± 280			
G40C U65A	0.000379 ± 3.9e-05	0.000199 ± 3.6e-05	0.000346 ± 6.3e-05	1830 ± 350	0.0001 ± 1.9e-05		3.58e-05 ± 1.5e-05
G40U U65A	0.000363 ± 4.2e-05	0.000235 ± 6.9e-05	0.000352 ± 7e-05	735 ± 170	0.000191 ± 3.7e-05		6.26e-05 ± 1.5e-05
G40U U65C	6.53e-05 ± 8.5e-06	6.94e-05 ± 1.5e-05	5.76e-05 ± 1.1e-05				
G41C U55C	0.000176 ± 4.4e-05	0.00012 ± 3.6e-05	0.000129 ± 3.9e-05				
G41C U55G	0.00012 ± 1.1e-05	8.8e-05 ± 3.3e-05	9.95e-05 ± 1.2e-05	1930 ± 750			
G44C U55C	3.25e-05 ± 2.5e-06				2.79e-05 ± 1.3e-05		
G41A U55A	6.65e-05 ± 1.1e-05	5.75e-05 ± 1.2e-05			6.66e-05 ± 1.1e-05		4.67e-05 ± 1.4e-05
A42G G44A	0.00011 ± 2.6e-05	7.65e-05 ± 1.8e-05	8.49e-05 ± 1.1e-05				
G43A U45G	0.0116 ± 0.0056	0.00969 ± 0.0023	0.00965 ± 0.0026		0.00306 ± 0.00054	0.000563 ± 0.0001	0.000816 ± 0.00022
G41U C68U	5.17e-05 ± 8.8e-06						< 1e-05
G43U C67U C68U	4.99e-05 ± 2e-05	7.28e-05 ± 2.2e-05	3.53e-05 ± 1.7e-05				

Variant	kcat (glucosamine-6-phosphate [1]) [s⁻¹]	self-cleavage kobs at 2500 uM GlcN6P (glucosamine-6-phosphate [2]) [s⁻¹]	self-cleavage kobs at 10000 uM GlcN6P (glucosamine-6-phosphate [3]) [s⁻¹]	KM (glucosamine-6-phosphate [4]) [µM]	self-cleavage kobs at 640 uM GlcN6P (glucosamine-6-phosphate [5]) [s⁻¹]	self-cleavage kobs at 40 uM GlcN6P (glucosamine-6-phosphate [6]) [s⁻¹]	self-cleavage kobs at 160 uM GlcN6P (glucosamine-6-phosphate [7]) [s⁻¹]
A42G G66U	0.00257 ± 0.00027	0.00166 ± 0.00027	0.0021 ± 0.00021	1900 ± 310	0.000688 ± 8.4e-05	5.91e-05 ± 9e-06	0.000171 ± 2.6e-05
G40U U57C	2.46e-05 ± 1.1e-05	3.3e-05 ± 1.4e-05				< 1e-05	
U45A A48G	0.000299 ± 7.2e-05	0.00033 ± 4.4e-05	0.00024 ± 2.6e-05		8.14e-05 ± 1.3e-05		
G44A C71U	9.17e-05 ± 8.5e-06	7.37e-05 ± 9.8e-06	7.95e-05 ± 9.2e-06	1020 ± 370	2.9e-05 ± 1e-05		
A42U G66U	6.96e-05 ± 7.8e-06	4.29e-05 ± 9.1e-06	5.76e-05 ± 6.8e-06	1930 ± 830		< 1e-05	
G44A C67A	0.0103 ± 0.0048	0.00541 ± 0.00076	0.00737 ± 0.0013		0.00141 ± 0.00018	0.00024 ± 4e-05	0.000422 ± 0.00011
G40U G41C	9.58e-05 ± 2.6e-05	8.94e-05 ± 1.2e-05	7.67e-05 ± 1.2e-05				< 1e-05
G40U G41U	8.36e-05 ± 7.4e-06	7.1e-05 ± 8.5e-06	7.34e-05 ± 7e-06	901 ± 330	2.92e-05 ± 8e-06	< 1e-05	
G43U U45G	0.00603 ± 0.00084	0.00422 ± 0.0011	0.005 ± 0.00078	1980 ± 380	0.00124 ± 0.00027	0.00013 ± 1.9e-05	0.000412 ± 0.00012
G43C C67A	0.000634 ± 8.3e-05	0.000479 ± 5.7e-05	0.00052 ± 4.3e-05	1520 ± 410	0.000205 ± 2e-05		4.22e-05 ± 1.1e-05
G44U U55G	0.000311 ± 3.4e-05	0.000204 ± 3.6e-05	0.00025 ± 4.1e-05	1860 ± 400	7.46e-05 ± 1.3e-05		
G44U U55C	9.04e-05 ± 3.7e-06		4.92e-05 ± 1.3e-05	8390 ± 750			< 1e-05
A42G C71G	0.00124 ± 0.0003	0.000941 ± 0.00016	0.00158 ± 0.0003	510 ± 230	0.000668 ± 8.8e-05	0.000167 ± 3.5e-05	0.000264 ± 4.3e-05
G41U U54C	0.00115 ± 0.00032	0.00118 ± 0.00025	0.00117 ± 0.00018		0.000389 ± 0.0001	0.000109 ± 1.9e-05	0.000197 ± 4.5e-05
G43U U46G	2.88e-05 ± 5.1e-06				< 1e-05		
A42G U69G	0.000182 ± 2.9e-05		0.000202 ± 4.3e-05		0.000119 ± 4.1e-05	5.35e-05 ± 2.1e-05	
